Measured values taken from patent US20100291103A1 (DOMANTIS, published 2010).

Key:
[1] = molecular target: T1, TNFR1-FC fusion (human TNFR1 receptor binding assay) (human, UniProt P19438 22-211, limits assumed); assay: RBA assay; taken as the value of the Fc fusion
T1 construct: also called TNFR1 (RBA); not shown: Fc part, captured by goat anti-human IgG (H&L); not described further
T1 sequence (looked up): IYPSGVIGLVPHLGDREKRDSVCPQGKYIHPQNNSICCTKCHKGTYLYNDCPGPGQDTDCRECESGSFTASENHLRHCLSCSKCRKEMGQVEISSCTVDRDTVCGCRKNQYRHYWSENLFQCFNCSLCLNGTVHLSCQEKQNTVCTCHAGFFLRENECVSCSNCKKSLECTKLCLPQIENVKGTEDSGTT

TNFR1 on MRC-5 cells = molecular target: T2, TNFR1 on MRC-5 cells (UniProt P19438 30-455, limits assumed); assay: cell-based or functional assay
T2 sequence (looked up): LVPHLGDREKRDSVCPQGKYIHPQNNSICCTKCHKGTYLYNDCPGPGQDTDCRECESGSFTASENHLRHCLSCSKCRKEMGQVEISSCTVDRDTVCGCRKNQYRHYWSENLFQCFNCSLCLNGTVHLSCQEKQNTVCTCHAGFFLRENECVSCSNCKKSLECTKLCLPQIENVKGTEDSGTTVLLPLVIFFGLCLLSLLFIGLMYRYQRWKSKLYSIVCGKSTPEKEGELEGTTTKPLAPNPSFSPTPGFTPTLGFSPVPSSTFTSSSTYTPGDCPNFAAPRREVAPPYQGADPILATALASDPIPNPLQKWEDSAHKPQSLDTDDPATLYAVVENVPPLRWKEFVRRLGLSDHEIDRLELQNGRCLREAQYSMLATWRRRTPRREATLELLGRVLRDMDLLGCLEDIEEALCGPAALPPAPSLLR

B1: DMS1544 (DOM1h-131-206 Fc fusion) (Fc fusion, not shown: a dimerising Fc or GST)
chain: EVQLLESGGGLVQPGGSLRLSCAASGFTFAHETMVWVRQAPGKGLEWVSHIPPDGQDPFYADSVKGRFTISRDNSKNTLYLQMNSLRAEDTAVYHCALLPKRGPWFDYWGQGTLVTVSSASTHTCPPCPAPELLGGP
notes: Dimeric Fc fusion
Activity (nM), RBA [1]: 0.047 nM

B2: DOM1h-131-206 (other)
VH: EVQLLESGGGLVQPGGSLRLSCAASGFTFAHETMVWVRQAPGKGLEWVSHIPPDGQDPFYADSVKGRFTISRDNSKNTLYLQMNSLRAEDTAVYHCALLPKRGPWFDYWGQGTLVTVSS
ND50, MRC-5 cell-based assay (TNFα stimulated IL-8 release) (TNFR1 on MRC-5 cells): 0.71 nM
